Data: article PMC12828747, “Nanobodies against Clostridioides difficile CDTb provide a toolkit for potent toxin neutralization and highly sensitive quantitation” (The Journal of Biological Chemistry, 2025)
Like-named read-outs stand apart in the source and are kept apart here.

T1: CDTb_(D1–D4) monomer (residues 43–876) (Clostridioides difficile, strain not …)
T1 construct: also called full-length (pro) CDTb; pro-CDTb
T1 chain: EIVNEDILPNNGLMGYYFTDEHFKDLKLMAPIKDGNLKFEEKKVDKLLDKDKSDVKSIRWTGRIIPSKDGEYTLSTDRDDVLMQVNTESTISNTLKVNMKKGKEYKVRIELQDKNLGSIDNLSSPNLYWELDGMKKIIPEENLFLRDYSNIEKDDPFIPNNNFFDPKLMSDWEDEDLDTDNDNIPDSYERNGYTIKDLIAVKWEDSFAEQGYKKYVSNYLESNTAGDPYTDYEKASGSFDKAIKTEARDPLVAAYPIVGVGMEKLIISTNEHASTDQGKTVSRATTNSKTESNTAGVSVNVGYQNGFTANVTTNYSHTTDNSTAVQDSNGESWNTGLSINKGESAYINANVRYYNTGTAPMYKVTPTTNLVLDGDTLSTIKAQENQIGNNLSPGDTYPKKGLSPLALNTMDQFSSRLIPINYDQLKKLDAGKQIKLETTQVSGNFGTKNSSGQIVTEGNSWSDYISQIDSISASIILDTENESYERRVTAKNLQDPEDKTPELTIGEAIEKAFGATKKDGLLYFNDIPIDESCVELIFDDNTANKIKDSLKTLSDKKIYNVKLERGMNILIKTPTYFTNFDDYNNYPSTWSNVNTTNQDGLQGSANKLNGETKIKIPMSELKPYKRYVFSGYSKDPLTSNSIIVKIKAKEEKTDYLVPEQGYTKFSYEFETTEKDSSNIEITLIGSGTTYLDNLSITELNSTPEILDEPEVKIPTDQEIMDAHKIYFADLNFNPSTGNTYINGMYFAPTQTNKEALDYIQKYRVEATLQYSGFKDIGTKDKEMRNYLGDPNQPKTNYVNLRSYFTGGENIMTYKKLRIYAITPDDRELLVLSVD

T2: activated monomeric CDTb (75 kDa-activated monomer) (Clostridioides difficile)
T2 construct: source: recombinant pro-CDTb trypsinized in vitro, purified (SEC)
T2 chain: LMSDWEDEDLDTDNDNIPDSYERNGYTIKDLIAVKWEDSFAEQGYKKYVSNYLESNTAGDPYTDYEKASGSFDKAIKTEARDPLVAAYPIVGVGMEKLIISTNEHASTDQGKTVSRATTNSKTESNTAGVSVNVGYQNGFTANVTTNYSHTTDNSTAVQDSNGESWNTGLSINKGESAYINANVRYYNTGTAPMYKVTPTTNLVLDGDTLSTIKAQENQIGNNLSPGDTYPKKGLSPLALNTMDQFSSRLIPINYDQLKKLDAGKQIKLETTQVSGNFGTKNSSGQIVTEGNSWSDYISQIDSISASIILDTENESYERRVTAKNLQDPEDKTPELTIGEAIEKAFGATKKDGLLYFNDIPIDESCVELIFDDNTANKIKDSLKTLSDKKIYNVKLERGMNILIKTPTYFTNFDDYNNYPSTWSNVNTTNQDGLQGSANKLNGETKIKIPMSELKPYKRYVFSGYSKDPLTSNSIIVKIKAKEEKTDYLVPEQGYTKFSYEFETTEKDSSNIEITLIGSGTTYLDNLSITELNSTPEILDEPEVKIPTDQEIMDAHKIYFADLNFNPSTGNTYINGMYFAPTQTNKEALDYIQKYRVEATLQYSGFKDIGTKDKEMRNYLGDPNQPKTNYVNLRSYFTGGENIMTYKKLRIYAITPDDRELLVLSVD

T3: CDTbD3′ (Clostridioides difficile, strain not …)
T3 chain: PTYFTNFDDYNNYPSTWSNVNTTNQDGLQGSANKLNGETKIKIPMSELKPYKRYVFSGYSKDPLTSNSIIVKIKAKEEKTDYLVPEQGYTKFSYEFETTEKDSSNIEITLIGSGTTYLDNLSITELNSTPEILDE

T4: heptameric CDTb (Clostridioides difficile, strain not …)
T4 construct: the ELISA text says only heptameric CDTb; also called CDTb heptamer; CDTb oligomers
T4 chain: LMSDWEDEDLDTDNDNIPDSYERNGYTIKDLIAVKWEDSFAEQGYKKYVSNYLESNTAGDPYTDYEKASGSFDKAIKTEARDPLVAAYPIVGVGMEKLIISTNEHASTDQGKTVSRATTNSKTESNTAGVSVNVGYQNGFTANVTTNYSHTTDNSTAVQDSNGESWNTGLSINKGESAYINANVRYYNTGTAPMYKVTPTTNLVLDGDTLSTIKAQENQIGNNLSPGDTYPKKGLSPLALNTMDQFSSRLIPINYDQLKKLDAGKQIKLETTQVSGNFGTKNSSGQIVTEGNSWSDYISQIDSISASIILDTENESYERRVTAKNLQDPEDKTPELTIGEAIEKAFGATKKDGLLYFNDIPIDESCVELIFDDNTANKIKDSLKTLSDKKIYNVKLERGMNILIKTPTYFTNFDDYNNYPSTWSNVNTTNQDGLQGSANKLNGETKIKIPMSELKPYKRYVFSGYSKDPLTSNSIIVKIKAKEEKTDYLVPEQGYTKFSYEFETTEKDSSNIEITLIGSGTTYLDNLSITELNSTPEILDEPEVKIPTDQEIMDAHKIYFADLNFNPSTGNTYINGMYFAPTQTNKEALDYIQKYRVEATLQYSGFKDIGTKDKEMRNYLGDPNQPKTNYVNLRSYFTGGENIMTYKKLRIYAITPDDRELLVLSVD

B1: Nb G2 (VHH)
VHH: QVQLQESGGGLVQPGGSLTLSCKASGIVFSTHTLAWYRQAPGKHRNVLAVITSAGIPNYDTDLKGRFTISRDNAKNTVYLQMNSLEPEDTAVYYCNARGPHPTVTGTTANYWGQGTQVTVSS
notes: also called C1G2; source: Expi293F, transfected, purified from supernatant (TALON resin)
B2: Nb C6 (VHH)
VHH: QVQLQESGGGLVEPGGSLRLSCVASGIVVASSTMSWYRQAPGKQRELVAQIFSGGNTNYRDSVRGRFTISKDNAKNTAYLQMDNLEPDDTAVYYCYARGFWGQGTQVTVSS
notes: also called C1C6; source: Expi293F, transfected, purified from supernatant (TALON resin)
B3: C1G1 (VHH)
VHH: QVQLQESGGGLVQPGGSLTLSCAASGSIGSGSVMSWYRQAPGKERELVAQESGGRLRSYAKSVMGRFTISRDNSNNTVTLQMNNLKTDDTAIYYCHLVQFSGRYWGHGTQVTGS
B4: Nb A9 (VHH)
VHH: QVQLQESGGGLVQPGGSLRLSCTSSTNMLEFTAVAWWRQAPGKQRDLLAVITRAGVPNYADSKGRFAISRDNAKNTVDLLINTLEPDDTAVYTCNARTSGNINYWGQGTQVTVSS
notes: also called C1A9; source: Expi293F, transfected, purified from supernatant (TALON resin)
B5: Nb H8 (VHH)
VHH: QVQLQESGGGLVQPGRSLRLSCEASDFSLNTFGAGWFRQVPGKEREGVSCISPSNSSTYYADSVKGRFTISRDNAKNTIYLQMNSLKPEDTGVYFCAARPITSAQALCTLLVSDSFTSWGQGTQVTVSS
notes: also called C1H8; source: Expi293F, transfected, purified from supernatant (TALON resin)
B6: Nb H12 (VHH)
VHH: QVQLQESGGGLVQPGGSLRLSCAASGDIFSFYTMGWYRQAPGKQRELVATITSPGTTNYADSVKGRFTISRDNAKNMVYLQMTSLKPEDTAVYYCNADRILTTDPQFKYWGQGTQVTVSS
notes: also called C1H12; source: Expi293F, transfected, purified from supernatant (TALON resin)

Experiments:
[1] = biological target: T5, CDTbD4 (760–876) (Clostridioides difficile, strain not …, UniProt O32739); experiment: SPR; Carterra LSA^XT, SAHC30M chip, 25 °C; biotinylated Nbs captured at eight densities; CDTb constructs injected at 0.3–300 nM (fourfold dilutions) without regeneration; HBS-T (10 mM HEPES pH 7.4, 150 mM NaCl, 0.05% Tween-20) with 0.5 mg/ml BSA; one-to-one kinetics model; settings: both partners purified
T5 construct: also called domain 4

[2] = biological target: T1, CDTb_(D1–D4) monomer (residues 43–876); experiment: as above; settings: both partners purified
[3] = biological target: T2, activated monomeric CDTb (75 …); experiment: ELISA; sandwich ELISA: nonbiotinylated capture Nb coated (200 ng/well), purified CDTb (activated monomer or heptameric sample) in PBS-T + 2% BSA, biotinylated detection Nb (50 ng/well), streptavidin-HRP; room temperature; settings: both partners purified
[4] = biological target: T6, CDTb_(D2–D3′) (210–749) (Clostridioides difficile, strain not …, UniProt O32739); experiment: SPR; […] (10 mM HEPES pH 7.4, 150 mM NaCl, 0.05% Tween-20) with 0.5 mg/ml BSA; […]; settings: both partners purified
[5] = biological target: T7, native CDTb protein in cecal contents of mice infected with C. difficile R20291 (Clostridioides difficile R20291, UniProt A0A9R0BM17, strain); experiment: ELISA; sandwich ELISA on cecal material of mice infected with R20291 (diluted to 10 mg/ml in PBS-T + 2% BSA): native CDTb bound by the coated capture Nb; settings: one partner purified
T7 construct: CDTb made by C. difficile R20291 during infection of mice; source: endogenous, C. difficile R20291, in cecal material of infected mice

[6] = biological target: T3, CDTbD3′; experiment: SPR; Carterra LSA^XT, SAHC30M chip, 25 °C; biotinylated Nbs captured at eight densities; CDTb constructs injected at 0.3–300 nM (fourfold dilutions) without regeneration; HBS-T (10 mM HEPES pH 7.4, 150 mM NaCl, 0.05% Tween-20) with 0.5 mg/ml BSA; one-to-one kinetics model; settings: both partners purified
[7] = biological target: T3, CDTbD3′; experiment: as above; settings: both partners purified
[8] = biological target: T7, native CDTb protein in cecal contents …; experiment: ELISA; sandwich ELISA on cecal material of mice infected with R20291: biotinylated detection Nb on the captured native CDTb; settings: one partner purified
[9] = biological target: T1, CDTb_(D1–D4) monomer (residues 43–876)
[10] = biological target: T3, CDTbD3′
[11] = biological target: T4, heptameric CDTb; experiment: ELISA; sandwich ELISA: nonbiotinylated capture Nb coated (200 ng/well), purified CDTb (activated monomer or heptameric sample) in PBS-T + 2% BSA, biotinylated detection Nb (50 ng/well), streptavidin-HRP; room temperature; settings: both partners purified
[12] = biological target: T1, CDTb_(D1–D4) monomer (residues 43–876); experiment: SPR; Carterra LSA^XT, SAHC30M chip, 25 °C; biotinylated Nbs captured at eight densities; CDTb constructs injected at 0.3–300 nM (fourfold dilutions) without regeneration; HBS-T (10 mM HEPES pH 7.4, 150 mM NaCl, 0.05% Tween-20) with 0.5 mg/ml BSA; one-to-one kinetics model; settings: both partners purified
[13] = biological target: T6, CDTb_(D2–D3′) (210–749); experiment: SPR; […] (10 mM HEPES pH 7.4, 150 mM NaCl, 0.05% Tween-20) with 0.5 mg/ml BSA; […]; settings: both partners purified; remark: listed apart in the source
[14] = biological target: T5, CDTbD4 (760–876); experiment: SPR; Carterra LSA^XT, SAHC30M chip, 25 °C; biotinylated Nbs captured at eight densities; CDTb constructs injected at 0.3–300 nM (fourfold dilutions) without regeneration; HBS-T (10 mM HEPES pH 7.4, 150 mM NaCl, 0.05% Tween-20) with 0.5 mg/ml BSA; one-to-one kinetics model; settings: both partners purified; remark: listed apart in the source
[15] = biological target: T2, activated monomeric CDTb (75 …); experiment: cell-based or functional assay

Binder	binding result [1]	Kd [2]	koff [2]	kon [2]	binding result [3]	Kd [4]	koff [4]	kon [4]	binding result [5]	Kd [6]	koff [6]	kon [6]	binding result [7]	binding result [8]	binding result [13]	Kd [14]	koff [14]	kon [14]	also measured
B1	no binding	≤ 0.029 nM	≤ 1e-05 s⁻¹	380000 M⁻¹ s⁻¹	binds	≤ 0.022 nM	≤ 1e-05 s⁻¹	480000 M⁻¹ s⁻¹	binds	0.18 nM	4.1e-05 s⁻¹	240000 M⁻¹ s⁻¹							
B2	no binding	0.018 nM	1.4e-05 s⁻¹	790000 M⁻¹ s⁻¹	binds	0.035 nM	4.4e-05 s⁻¹	1.3e+06 M⁻¹ s⁻¹					no binding	binds					
B3																			binding result [9]: binds; binding result [10]: binds
B4	no binding	0.024 nM	3.2e-05 s⁻¹	1e+06 M⁻¹ s⁻¹	binds	0.02 nM	1.4e-05 s⁻¹	710000 M⁻¹ s⁻¹	binds	≤ 0.031 nM	≤ 1e-05 s⁻¹	330000 M⁻¹ s⁻¹							binding result [11]: binds
B5		1.6 nM	0.00089 s⁻¹	560000 M⁻¹ s⁻¹	binds								no binding		no binding	0.63 nM	0.00083 s⁻¹	1.4e+06 M⁻¹ s⁻¹	Kd [12]: 1.9 nM
B6		0.05 nM	6.7e-05 s⁻¹	1.4e+06 M⁻¹ s⁻¹									no binding	binds	no binding	0.042 nM	0.00013 s⁻¹	3.1e+06 M⁻¹ s⁻¹	EC50 of neutralization of CDT-induced rounding of Vero-GFP cells (1 nM CDTa + 7 nM activated monomeric CDTb, Nb 0.6–100 nM, 3 h postintoxication) [15]: ~6 nM
